Data reported in PMC10542519.

Assays:
[1] = molecular target: PhiPA3 ChmC-ΔC (residues 204-251 removed) (Pseudomonas phage PhiPA3); assay: SEC-MALS
[2] = molecular target: PhiPA3 Chimallin C (ChmC; gp61), full-length (Pseudomonas phage PhiPA3); assay: SEC-MALS

Row | Substance | stoichiometry N [1] | stoichiometry N [2]
1 | PhiPA3 ChmC-ΔC (residues 204-251 removed) (domain or fragment) | 4 | 
2 | PhiPA3 Chimallin C (ChmC; gp61), full-length (natural protein) |  | 4
